In article PMC9953421, “Regulation of CRISPR-Associated Genes by Rv1776c (CasR) in Mycobacterium tuberculosis”:

Molecular target: T1, CasR (Rv1776c) (UniProt O33179 1-186)
T1 sequence: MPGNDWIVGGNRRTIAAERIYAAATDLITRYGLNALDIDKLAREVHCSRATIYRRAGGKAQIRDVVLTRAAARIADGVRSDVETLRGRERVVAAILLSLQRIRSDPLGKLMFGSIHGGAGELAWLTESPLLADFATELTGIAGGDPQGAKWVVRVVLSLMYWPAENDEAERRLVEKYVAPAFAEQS
Assay: EMSA; 0-2 uM protein
Conditions: protein: recombinant; tags: N-terminal His (pET28a); chain copies: 2

B1: casRp4 (dsDNA)
DNA 1: AATAGCGCCCCGTTGTTAGACTAGATGA
DNA 2: TCATCTAGTCTAACAACGGGGCGCTATT
- binding result: no binding

B2: csm6p2 (dsDNA)
DNA 1: CGATCAGGAAAACAATTAGACGCAGGGGC
DNA 2: GCCCCTGCGTCTAATTGTTTTCCTGATCG
- binding result: no binding
